Test results from US20220177580A1 (Amgen, published 2022).
One block for each binder: values may come before it.

Key:
[1] = target: T1, huFcγRIIa-131H (His-tagged, soluble, captured for SPR) (human, UniProt P12318 34-217, limits assumed); assay: SPR, His-tagged FcγR captured by anti-His antibody, antibody injected; unenriched panitumumab; apparent KD
T1 construct: His-tagged human FcγR expressed in CHO cells, purified in house and captured by an anti-His antibody on a CM5 chip; also called FcγRIIa-H131; not shown: His tag
T1 sequence (looked up): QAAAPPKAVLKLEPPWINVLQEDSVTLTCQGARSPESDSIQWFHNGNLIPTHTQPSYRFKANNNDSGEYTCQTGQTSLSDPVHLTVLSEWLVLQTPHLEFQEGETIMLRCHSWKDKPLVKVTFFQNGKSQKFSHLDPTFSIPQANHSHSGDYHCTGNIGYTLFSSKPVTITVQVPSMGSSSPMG
Procedure: (§1) Surface plasmon resonance experiments were performed using the SPR T-200 instrument. His-tagged human FcγRs were expressed in CHO cells and purified in house mouse anti-his capture antibody was immobilized at approximately 5000 RU on a Series S Sensor Chip CM5 (GE Healthcare) using Instrument Buffer (0.005% P20 in PBS). FcγRs were diluted to 3.3˜10 nM in running buffer (0.005% P20, 0.1 mg/mL BSA in PBS) and injected at 10 μL/min for 1.5 min for the capture step. Panitumumab samples were diluted in running buffer (PBS+0.005% P20+0.1 mg/mL BSA) over a range of concentrations from 0.4 nM-20000 nM and injected over the captured FcγR with association and dissociation times of 3 minutes at 50 μL/min. The chip surface was regenerated by injecting 10 mM glycine, pH 1.7 at 30 μL/min for 30 s.

[2] = target: T2, human FcγRI (His-tagged, soluble, captured for SPR) (human, UniProt P12314 16-292, limits assumed); assay: SPR, His-tagged FcγR captured by anti-His antibody, antibody injected
T2 construct: His-tagged human FcγR expressed in CHO cells, purified in house and captured by an anti-His antibody on a CM5 chip; also called CD64; not shown: His tag
T2 sequence (P12314 16-292 limits assumed): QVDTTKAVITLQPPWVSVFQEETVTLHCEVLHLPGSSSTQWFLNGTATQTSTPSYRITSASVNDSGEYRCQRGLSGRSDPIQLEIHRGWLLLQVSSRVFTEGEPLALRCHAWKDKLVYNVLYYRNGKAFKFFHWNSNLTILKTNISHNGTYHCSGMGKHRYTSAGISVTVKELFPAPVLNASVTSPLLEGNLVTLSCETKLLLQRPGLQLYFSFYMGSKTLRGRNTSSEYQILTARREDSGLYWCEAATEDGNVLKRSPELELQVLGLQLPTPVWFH
Procedure: as §1

[3] = target: T1, huFcγRIIa-131H (His-tagged, soluble, …); assay: SPR equilibrium binding, His-tagged FcγR captured by anti-His antibody; fucose enriched; equilibrium binding
Procedure: as §1
(§2) To try to assess the affinity of panitumumab and the various enriched glycan species for FcγRs, we measured the biding of panitumumab samples to all three human Fcγ Receptors by surface plasmon resonance (SPR). […] The binding was further assessed for the fucose and afucose enriched panitumumab samples by equilibrium binding (FIGS. 11A-11B). […]

[4] = target: T1, huFcγRIIa-131H (His-tagged, soluble, …); assay: SPR equilibrium binding, His-tagged FcγR captured by anti-His antibody; afucose enriched; equilibrium binding
Procedure: as §1, §2

Kd [1]: ~20 µM | binding result [2]: no binding (tested: 10 µM)
B1: Panitumumab (antibody, human IgG2, kappa)
heavy: QVQLQESGPGLVKPSETLSLTCTVSGGSVSSGDYYWTWIRQSPGKGLEWIGHIYYSGNTNYNPSLKSRLTISIDTSKTQFSLKLSSVTAADTAIYYCVRDRVTGAFDIWGQGTMVTVSSASTKGPSVFPLAPCSRSTSESTAALGCLVKDYFPEPVTVSWNSGALTSGVHTFPAVLQSSGLYSLSSVVTVPSSNFGTQTYTCNVDHKPSNTKVDKTVERKCCVECPPCPAPPVAGPSVFLFPPKPKDTLMISRTPEVTCVVVDVSHEDPEVQFNWYVDGVEVHNAKTKPREEQFNSTFRVVSVLTVVHQDWLNGKEYKCKVSNKGLPAPIEKTISKTKGQPREPQVYTLPPSREEMTKNQVSLTCLVKGFYPSDIAVEWESNGQPENNYKTTPPMLDSDGSFFLYSKLTVDKSRWQQGNVFSCSVMHEALHNHYTQKSLSLSPGK
light: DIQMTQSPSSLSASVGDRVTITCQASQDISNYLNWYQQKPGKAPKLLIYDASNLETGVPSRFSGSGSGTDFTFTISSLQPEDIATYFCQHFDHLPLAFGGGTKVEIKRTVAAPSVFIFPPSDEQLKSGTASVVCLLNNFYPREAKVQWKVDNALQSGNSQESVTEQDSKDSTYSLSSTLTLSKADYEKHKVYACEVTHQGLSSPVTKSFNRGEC
modifications: N-linked glycan at N-297 (Kabat EU numbering; residue 295 of SEQ ID NO:1)
notes: Human IgG2 anti-EGFR monoclonal antibody produced in CHO cells at Amgen; unfractionated glycan profile; also called Vectibix; IgG2 (Panitumumab)

Kd [3]: ~7.9 µM
B2: fucose enriched panitumumab (antibody, human IgG2, kappa)
heavy: QVQLQESGPGLVKPSETLSLTCTVSGGSVSSGDYYWTWIRQSPGKGLEWIGHIYYSGNTNYNPSLKSRLTISIDTSKTQFSLKLSSVTAADTAIYYCVRDRVTGAFDIWGQGTMVTVSSASTKGPSVFPLAPCSRSTSESTAALGCLVKDYFPEPVTVSWNSGALTSGVHTFPAVLQSSGLYSLSSVVTVPSSNFGTQTYTCNVDHKPSNTKVDKTVERKCCVECPPCPAPPVAGPSVFLFPPKPKDTLMISRTPEVTCVVVDVSHEDPEVQFNWYVDGVEVHNAKTKPREEQFNSTFRVVSVLTVVHQDWLNGKEYKCKVSNKGLPAPIEKTISKTKGQPREPQVYTLPPSREEMTKNQVSLTCLVKGFYPSDIAVEWESNGQPENNYKTTPPMLDSDGSFFLYSKLTVDKSRWQQGNVFSCSVMHEALHNHYTQKSLSLSPGK
light: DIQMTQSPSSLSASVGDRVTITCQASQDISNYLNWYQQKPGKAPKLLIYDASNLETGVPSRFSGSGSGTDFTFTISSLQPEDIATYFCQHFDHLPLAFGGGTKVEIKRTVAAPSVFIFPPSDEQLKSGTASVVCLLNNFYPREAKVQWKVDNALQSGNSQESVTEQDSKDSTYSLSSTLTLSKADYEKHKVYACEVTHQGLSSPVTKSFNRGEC
modifications: N-297 glycan (residue 295 of SEQ ID NO:1) enriched for fucosylated species (flow-through of FcγIIIa affinity column; terminal galactose removed with β-(1-4)-galactosidase)
notes: also called fucosylated panitumumab; afucose-depleted (flow-through) mAb

Kd [4]: ~8 µM
B3: afucose enriched panitumumab (antibody, human IgG2, kappa)
heavy: QVQLQESGPGLVKPSETLSLTCTVSGGSVSSGDYYWTWIRQSPGKGLEWIGHIYYSGNTNYNPSLKSRLTISIDTSKTQFSLKLSSVTAADTAIYYCVRDRVTGAFDIWGQGTMVTVSSASTKGPSVFPLAPCSRSTSESTAALGCLVKDYFPEPVTVSWNSGALTSGVHTFPAVLQSSGLYSLSSVVTVPSSNFGTQTYTCNVDHKPSNTKVDKTVERKCCVECPPCPAPPVAGPSVFLFPPKPKDTLMISRTPEVTCVVVDVSHEDPEVQFNWYVDGVEVHNAKTKPREEQFNSTFRVVSVLTVVHQDWLNGKEYKCKVSNKGLPAPIEKTISKTKGQPREPQVYTLPPSREEMTKNQVSLTCLVKGFYPSDIAVEWESNGQPENNYKTTPPMLDSDGSFFLYSKLTVDKSRWQQGNVFSCSVMHEALHNHYTQKSLSLSPGK
light: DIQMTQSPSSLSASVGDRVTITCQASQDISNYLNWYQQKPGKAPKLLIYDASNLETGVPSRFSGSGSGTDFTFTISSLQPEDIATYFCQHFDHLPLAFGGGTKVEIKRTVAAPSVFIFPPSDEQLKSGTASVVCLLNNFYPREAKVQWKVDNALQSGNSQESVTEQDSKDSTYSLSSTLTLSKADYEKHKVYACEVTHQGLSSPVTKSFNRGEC
modifications: N-297 glycan (residue 295 of SEQ ID NO:1) enriched for afucosylated species (Endo-H treatment, eluate of FcγIIIa affinity column; terminal galactose removed with β-(1-4)-galactosidase)
notes: also called afucosylated panitumumab; afucose enriched (eluate) mAb
